# Test results as given in article PMC12022973 (2025).
# Positions of bridges follow the written chain, without caps; N, C: chain ends. Chains are numbered I, II in the order given. No end group written: not given here.
# B1: fluorescein-labeled CHD^Max-1 (cross-linked helix dimer derived from MAX) (designed binder)
# chain 1: LREKIATLQWCIEELRK
# chain 2: LRRKNETHQWEIEELC
# modifications: bridge I:11-II:16; not fully specified (bridges); also: fluorescein label, chain and position not given here
# Target: preformed MYC/MAX heterodimer (human | , UniProt P61244 1-160)
# Test: FP
# Chain of preformed MYC/MAX heterodimer (chain, as listed by the source, chain 1 of 2): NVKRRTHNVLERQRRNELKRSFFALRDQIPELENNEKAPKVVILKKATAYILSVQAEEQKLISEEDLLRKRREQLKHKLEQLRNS
# Chain of preformed MYC/MAX heterodimer (P61244 2-160, chain 2 of 2): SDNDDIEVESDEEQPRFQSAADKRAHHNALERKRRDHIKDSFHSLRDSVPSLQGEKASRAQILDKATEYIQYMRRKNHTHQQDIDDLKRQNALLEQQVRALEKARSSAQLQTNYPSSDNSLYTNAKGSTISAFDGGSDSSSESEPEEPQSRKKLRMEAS
binder,measurement,value
B1,Kd,460 nM
